Data from US9719067B2, “Generation of anterior foregut endoderm from pluripotent cells” (Mount Sinai School of Medicine, priority 2010, dated 2017).

Experiments:
Type in all cases: cell-based, human
ventralized AFE = assay: Induction of lung and parathyroid markers from ventralized AFE
Procedure: (§1) Mouse embryonic fibroblasts were depleted by a 24 h passage on Ma gel (Gibco) with Y-27632 (10 μM), and embryoid bodies were formed on low-adherence dishes (Costar). During embryoid body formation and differentiation, HES2 cells were reseeded at the same concentration (1:1 dilution), whereas HDF2 and HDF9 required a higher seeding (2:1-4:1 concentration) for efficient endoderm generation. Differentiations were performed in a medium of DMEM/F12 (Invitrogen) supplemented with N2 (Gibco), B27 (Gibco), ascorbic acid (50 μg/ml, Sigma). Glutamax (2 mM, Invitrogen), monothioglycerol ([…], Sigma). The following concentrations of factors were used for primitive streak formation, endoderm induction, anterior/pharyngeal endoderm induction, and subsequent anterior posterior and dorsoventral patterning: human BMP-4, 1 ng/ml and 10 ng/ml; human bFGF, 2.5 ng/ml; human activin A, 100 ng/ml; human Noggin, 200 ng/ml; Y-27632, 1 μM; SB-431542, 10 μM; human FGF10, 10 ng/ml; human FGF7, 10 ng/ml; murine EGF 20 ng/ml; and human WNT3a, 100 ng/ml. Hepatic conditions were as previously described 2 and contain BMP-4, 50 ng/ml; bFGF, 10 ng/ml; VEGF, 10 ng/ml; HGF, 10 ng/ml; TGFα, 20 ng/ml; dexamethasone, 40 ng/ml. All factors were purchased from R&D systems, except SB-431542 and Y-27632, which are from Tocris, and dexamethasone (Sigma). […]
(§2) Total RNA was extracted using Trizol (Invitrogen), phase lock tubes (5′ Prime) and the RNeasy kit (Qiagen). […] Amplified material was detected using SybrGreen (Invitrogen). Real-time quantitative PCR was performed on ABI 7900HT thermocycler (Applied Biosystems), with a 10-min step at 95° C. followed by 40 cycles of 95° C. for 15 s and 60° C. for 1 min. All experiments were done in triplicate with SYBR GreenER quantitative PCR SuperMix (Invitrogen). […] Absolute quantification was obtained in relation to a standard curve of genomic DNA dilution series. Quantified values for the gene of interest were normalized against input determined by the housekeeping genes GAPDH and β-ACTIN, qPCR for each culture well was performed in triplicate.

hES cell line HES2 = assay: Activin A induction of definitive endoderm from hES cells (flow cytometry, cell number); settings: after 4 d of exposure to activin A
Procedure: hESC (HES2, National Institutes of Health code ES02 from ES Cell International; passages 25-33) were cultured on mouse embryonic fibroblasts plated at 8,000-12,000 cells/cm^2, A medium of DMEM/F12, 20% knockout serum replacement (Gibco), 0.1 mM β-mercaptoethanol (Sigma-Aldrich), and 20 ng/ml FGF-2 (R&D) was changed daily. Cells were passaged with trypsin, washed and replated at a dilution of 1:5 to 1:10. HDF2 and HDF9, hiPS cell lines, were cultured as hES2. hES and hiPS cultures were maintained in a 5% CO2/air environment, and hES differentiations were maintained in a 5% CO2/5% O2/90% N2 environment.
Mouse embryonic fibroblasts were depleted by a 24 h passage on Ma gel (Gibco) with Y-27632 (10 μM), and embryoid bodies were formed on low-adherence dishes (Costar). During embryoid body formation and differentiation, HES2 cells were reseeded at the same concentration (1:1 dilution), whereas HDF2 and HDF9 required a higher seeding (2:1-4:1 concentration) for efficient endoderm generation. Differentiations were performed in a medium of DMEM/F12 (Invitrogen) supplemented with N2 (Gibco), B27 (Gibco), ascorbic acid (50 μg/ml, Sigma). Glutamax (2 mM, Invitrogen), monothioglycerol (0.4 μM, Sigma). […]
Day 5 embryoid bodies or day 13 monolayer cultures were dissociated with trypsin/EDTA (2 min). […] Cells were analyzed on a LSRII. […]

[1] = test system: activin A-induced definitive endoderm (HES2); assay: Anteriorization of activin A-induced definitive endoderm, factors added at day 5, marker mRNA by quantitative PCR at day 9
Procedure: as §1
as §2, with “triplicate. […]” for “triplicate.”

[2] = retinoic acid added to the WKFBE cocktail
[3] = mRNA at day 9, factors added at day 5

Molecule: CC1=C(/C=C/C(C)=C/C=C/C(C)=C/C(=O)O)C(C)(C)CCC1 [retinoic acid, all-trans retinoic acid]
- expression of FOXP2, NKX2.1, GATA6 and FOXJ1 (ventralized AFE; [2]): increased
- expression of the pharyngeal pouch marker PAX1 (ventralized AFE; [2]): decreased

B1: FGF8: fibroblast growth factor 8, agonist of FGF signaling (protein, UniProt P55075 23-233, looked up)
Fibroblast growth factor 8: QEGPGRGPALGRELASLFRAGREPQGVSQQHVREQSLVTDQLSRRLIRTYQLYSRTSGKHVQVLANKRINAMAEDGDPFAKLIVETDTFGSRVRVRGAETGLYICMNKKGKLIAKSNGKGKDCVFTEIVLENNYTALQNAKYEGWYMAFTRKGRPRKGSKTRQHQREVHFMKRLPRGHHTTEQSLRFEFLNYPPFTRSLRGSQRTWAPEPR
- parathyroid-specific marker GCM2 (ventralized AFE; AFE ventralized with WKFBE in the absence of retinoic acid): induced

B2: activin A: human activin A, soluble cytokine activating the same receptor as nodal; 100 ng/ml (protein, UniProt P08476 311-426, looked up)
Inhibin beta A chain: GLECDGKVNICCKKQFFVSFKDIGWNDWIIAPSGYHANYCEGECPSHIAGTSGSSLSFHSTVINHYRMRGHSPFANLKSCCVPTKLRPMSMLYYDDGQNIIKKDIQNMIVEECGCS
modifications: Inhibin beta A chain
notes: 100 ng/ml
- cells expressing the definitive endoderm markers CXCR4, c-KIT and EPCAM (hES cell line HES2): > 95%

B3: WNT3a: human WNT3a, agonist of canonical Wnt signaling; 100 ng/ml (protein, UniProt P56704 19-352, looked up)
Protein Wnt-3a: SYPIWWSLAVGPQYSSLGSQPILCASIPGLVPKQLRFCRNYVEIMPSVAEGIKIGIQECQHQFRGRRWNCTTVHDSLAIFGPVLDKATRESAFVHAIASAGVAFAVTRSCAEGTAAICGCSSRHQGSPGKGWKWGGCSEDIEFGGMVSREFADARENRPDARSAMNRHNNEAGRQAIASHMHLKCKCHGLSGSCEVKTCWWSQPDFRAIGDFLKDKYDSASEMVVEKHRESRGWVETLRPRYTYFKVPTERDLVYYEASPNFCEPNPETGSFGTRDRTCNVSSHGIDGCDLLCCGRGHNARAERRREKCRCVFHWCCYVSCQECTRVYDVHTCK
- CDX2 expression [1, 3]: increased

B4: sFRP3: soluble Frizzled-related protein 3, WNT antagonist (protein, UniProt Q92765 33-325, looked up)
Secreted frizzled-related …: AACEPVRIPLCKSLPWNMTKMPNHLHHSTQANAILAIEQFEGLLGTHCSPDLLFFLCAMYAPICTIDFQHEPIKPCKSVCERARQGCEPILIKYRHSWPENLACEELPVYDRGVCISPEAIVTADGADFPMDSSNGNCRGASSERCKCKPIRATQKTYFRNNYNYVIRAKVKEIKTKCHDVTAVVEVKEILKSSLVNIPRDTVNLYTSSGCLCPPLNVNEEYIIMGYEDEERSRLLLVEGSIAEKWKDRLGKKVKRWDMKLRHLGLSKSDSSNSDSTQSQKSGRNSNPRQARN
- induction of PAX9 and SOX2 when added to NOGGIN/SB-431542 ([1]; day 9, sFRP3 added with NOGGIN/SB-431542): detrimental
- SOX2 expression [1, 3]: not sufficient
